Measured values from the supplement of paper PMC7125110.
± gives the standard error. Fewer inactive variants are shown than the library holds.

B1: glmS ribozyme (parent)
chain: AUAAAAGCGCCAGAACUACAGAAAUGUAGUUGACGAGGAGGAGGUUUAUCGAAUUUUCGGCGGAUGCCUCCAAA

How the values were obtained:
Conditions in all cases: with glucosamine-6-phosphate
glucosamine-6-phosphate [1] = variants of: B1; test: self-cleavage kobs at 40 uM GlcN6P; higher = faster cleavage; RNA array
Summary of the method: (§1)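 E. coli RNA polymerase transcribed barcoded ribozyme variants in situ on sequenced MiSeq chips, which were tracked via a hybridised Cy3 probe at 37 °C. Tiles were imaged over ~14 h after glucosamine-6-phosphate (40 μM to 10 mM) in HEPES/KCl/Mg(OAc)2 buffer was flowed in. Normalised per-tile medians were fit to one- or two-exponential decays for kobs, and kcat and KM came from weighted Michaelis–Menten fits.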

glucosamine-6-phosphate [2] = variants of: B1; test: self-cleavage kobs at 160 uM GlcN6P; higher = faster cleavage; RNA array
Summary of the method: as §1

glucosamine-6-phosphate [3] = variants of: B1; test: self-cleavage kobs at 640 uM GlcN6P; higher = faster cleavage; RNA array
Summary of the method: as §1

glucosamine-6-phosphate [4] = variants of: B1; test: self-cleavage kobs at 2500 uM GlcN6P; higher = faster cleavage; RNA array
Summary of the method: as §1

glucosamine-6-phosphate [5] = variants of: B1; test: self-cleavage kobs at 10000 uM GlcN6P; higher = faster cleavage; RNA array
Summary of the method: as §1

Q: What does the source list for A33G A64C?
A: self-cleavage kobs at 40 uM GlcN6P (glucosamine-6-phosphate [1]): < 1e-05 s⁻¹; self-cleavage kobs at 160 uM GlcN6P (glucosamine-6-phosphate [2]): < 1e-05 s⁻¹; self-cleavage kobs at 640 uM GlcN6P (glucosamine-6-phosphate [3]): < 1e-05 s⁻¹; self-cleavage kobs at 2500 uM GlcN6P (glucosamine-6-phosphate [4]): < 1e-05 s⁻¹; self-cleavage kobs at 10000 uM GlcN6P (glucosamine-6-phosphate [5]): < 1e-05 s⁻¹

Q: What does the source list for A42C C68G?
A: self-cleavage kobs at 40 uM GlcN6P (glucosamine-6-phosphate [1]): < 1e-05 s⁻¹; self-cleavage kobs at 160 uM GlcN6P (glucosamine-6-phosphate [2]): < 1e-05 s⁻¹; self-cleavage kobs at 640 uM GlcN6P (glucosamine-6-phosphate [3]): < 1e-05 s⁻¹

Q: For A33G U55C G59A, which “self-cleavage kobs at 40 uM GlcN6P” value (glucosamine-6-phosphate [1]) is on record?
A: The value was less than 1e-05 s⁻¹.

Q: And the “self-cleavage kobs at 640 uM GlcN6P” value (glucosamine-6-phosphate [3])?
A: The value was less than 1e-05 s⁻¹.

Q: And the “self-cleavage kobs at 2500 uM GlcN6P” value (glucosamine-6-phosphate [4])?
A: The value was less than 1e-05 s⁻¹.

Q: And the “self-cleavage kobs at 10000 uM GlcN6P” value (glucosamine-6-phosphate [5])?
A: The value was less than 1e-05 s⁻¹.

Q: Which “self-cleavage kobs at 40 uM GlcN6P” value (glucosamine-6-phosphate [1]) does the source give for G51A A52C A53G here?
A: The value was less than 1e-05 s⁻¹.

Q: A14G A53U C71G was tested. Which “self-cleavage kobs at 40 uM GlcN6P” value (glucosamine-6-phosphate [1]) did it give?
A: The value was 0.000153 ± 2.4e-05 s⁻¹.

Q: And the “self-cleavage kobs at 640 uM GlcN6P” value (glucosamine-6-phosphate [3])?
A: Its value is 0.000741 ± 0.00014 s⁻¹.

Q: And the “self-cleavage kobs at 2500 uM GlcN6P” value (glucosamine-6-phosphate [4])?
A: The value was 0.00038 ± 0.0001 s⁻¹.

Q: Which “self-cleavage kobs at 40 uM GlcN6P” value (glucosamine-6-phosphate [1]) does the source give for G9U C10G here?
A: Its value is less than 1e-05 s⁻¹.

Q: What about the “self-cleavage kobs at 160 uM GlcN6P” value (glucosamine-6-phosphate [2]) of the same variant?
A: Its value is less than 1e-05 s⁻¹.

Q: And the “self-cleavage kobs at 640 uM GlcN6P” value (glucosamine-6-phosphate [3])?
A: The value was less than 1e-05 s⁻¹.

Q: And the “self-cleavage kobs at 2500 uM GlcN6P” value (glucosamine-6-phosphate [4])?
A: The value was less than 1e-05 s⁻¹.

Q: What about the “self-cleavage kobs at 10000 uM GlcN6P” value (glucosamine-6-phosphate [5]) of the same variant?
A: Its value is less than 1e-05 s⁻¹.

Q: How did the “self-cleavage kobs at 40 uM GlcN6P” value (glucosamine-6-phosphate [1]) turn out when U55A G62U was run?
A: The value was less than 1e-05 s⁻¹.

Q: And the “self-cleavage kobs at 640 uM GlcN6P” value (glucosamine-6-phosphate [3])?
A: Its value is less than 1e-05 s⁻¹.

Q: What about the “self-cleavage kobs at 2500 uM GlcN6P” value (glucosamine-6-phosphate [4]) of the same variant?
A: Its value is less than 1e-05 s⁻¹.

Q: And the “self-cleavage kobs at 10000 uM GlcN6P” value (glucosamine-6-phosphate [5])?
A: The value was less than 1e-05 s⁻¹.

Q: What does the source list for U30G U56A G66A?
A: self-cleavage kobs at 40 uM GlcN6P (glucosamine-6-phosphate [1]): 5.14e-05 ± 1.7e-05 s⁻¹; self-cleavage kobs at 10000 uM GlcN6P (glucosamine-6-phosphate [5]): 0.00252 ± 0.00061 s⁻¹

Q: With C16U C67U as the variant, how does the “self-cleavage kobs at 40 uM GlcN6P” value (glucosamine-6-phosphate [1]) read?
A: The value was 0.000314 ± 3.3e-05 s⁻¹.

Q: And the “self-cleavage kobs at 160 uM GlcN6P” value (glucosamine-6-phosphate [2])?
A: Its value is 0.000412 ± 0.00014 s⁻¹.

Q: And the “self-cleavage kobs at 640 uM GlcN6P” value (glucosamine-6-phosphate [3])?
A: The value was 0.00186 ± 0.00024 s⁻¹.

Q: And the “self-cleavage kobs at 2500 uM GlcN6P” value (glucosamine-6-phosphate [4])?
A: Its value is 0.00294 ± 0.00071 s⁻¹.

Q: And the “self-cleavage kobs at 10000 uM GlcN6P” value (glucosamine-6-phosphate [5])?
A: The value was 0.0126 ± 0.0021 s⁻¹.

Q: How did the “self-cleavage kobs at 40 uM GlcN6P” value (glucosamine-6-phosphate [1]) turn out when A52C G62U C71A was run?
A: Its value is less than 1e-05 s⁻¹.

Q: And the “self-cleavage kobs at 2500 uM GlcN6P” value (glucosamine-6-phosphate [4])?
A: Its value is less than 1e-05 s⁻¹.

Q: G59C U65G was tested. Which “self-cleavage kobs at 40 uM GlcN6P” value (glucosamine-6-phosphate [1]) did it give?
A: The value was less than 1e-05 s⁻¹.

Q: And the “self-cleavage kobs at 640 uM GlcN6P” value (glucosamine-6-phosphate [3])?
A: The value was less than 1e-05 s⁻¹.

Q: What about the “self-cleavage kobs at 10000 uM GlcN6P” value (glucosamine-6-phosphate [5]) of the same variant?
A: Its value is less than 1e-05 s⁻¹.

Q: How did the “self-cleavage kobs at 40 uM GlcN6P” value (glucosamine-6-phosphate [1]) turn out when A6U G59C C71G was run?
A: The value was less than 1e-05 s⁻¹.

Q: What about the “self-cleavage kobs at 160 uM GlcN6P” value (glucosamine-6-phosphate [2]) of the same variant?
A: Its value is less than 1e-05 s⁻¹.

Q: And the “self-cleavage kobs at 640 uM GlcN6P” value (glucosamine-6-phosphate [3])?
A: Its value is less than 1e-05 s⁻¹.

Q: And the “self-cleavage kobs at 2500 uM GlcN6P” value (glucosamine-6-phosphate [4])?
A: Its value is less than 1e-05 s⁻¹.

Q: And the “self-cleavage kobs at 10000 uM GlcN6P” value (glucosamine-6-phosphate [5])?
A: The value was less than 1e-05 s⁻¹.

Q: C34G G41A was tested. Which “self-cleavage kobs at 40 uM GlcN6P” value (glucosamine-6-phosphate [1]) did it give?
A: Its value is less than 1e-05 s⁻¹.

Q: What about the “self-cleavage kobs at 160 uM GlcN6P” value (glucosamine-6-phosphate [2]) of the same variant?
A: The value was less than 1e-05 s⁻¹.

Q: What about the “self-cleavage kobs at 640 uM GlcN6P” value (glucosamine-6-phosphate [3]) of the same variant?
A: The value was less than 1e-05 s⁻¹.

Q: What about the “self-cleavage kobs at 10000 uM GlcN6P” value (glucosamine-6-phosphate [5]) of the same variant?
A: Its value is less than 1e-05 s⁻¹.

Q: For G9U A15U, which “self-cleavage kobs at 40 uM GlcN6P” value (glucosamine-6-phosphate [1]) is on record?
A: Its value is less than 1e-05 s⁻¹.

Q: What about the “self-cleavage kobs at 160 uM GlcN6P” value (glucosamine-6-phosphate [2]) of the same variant?
A: The value was less than 1e-05 s⁻¹.

Q: And the “self-cleavage kobs at 640 uM GlcN6P” value (glucosamine-6-phosphate [3])?
A: The value was less than 1e-05 s⁻¹.

Q: How did the “self-cleavage kobs at 40 uM GlcN6P” value (glucosamine-6-phosphate [1]) turn out when G43A A64G was run?
A: The value was less than 1e-05 s⁻¹.

Q: What about the “self-cleavage kobs at 160 uM GlcN6P” value (glucosamine-6-phosphate [2]) of the same variant?
A: The value was less than 1e-05 s⁻¹.

Q: What about the “self-cleavage kobs at 10000 uM GlcN6P” value (glucosamine-6-phosphate [5]) of the same variant?
A: Its value is 4.35e-05 ± 1.7e-05 s⁻¹.

Q: For U49G A53U U56A C67A C70A, which “self-cleavage kobs at 40 uM GlcN6P” value (glucosamine-6-phosphate [1]) is on record?
A: Its value is 4.31e-05 ± 1.9e-05 s⁻¹.

Q: What about the “self-cleavage kobs at 2500 uM GlcN6P” value (glucosamine-6-phosphate [4]) of the same variant?
A: The value was 0.000146 ± 2.4e-05 s⁻¹.

Q: Which “self-cleavage kobs at 40 uM GlcN6P” value (glucosamine-6-phosphate [1]) does the source give for C34A G51A here?
A: The value was less than 1e-05 s⁻¹.

Q: What about the “self-cleavage kobs at 160 uM GlcN6P” value (glucosamine-6-phosphate [2]) of the same variant?
A: Its value is less than 1e-05 s⁻¹.

Q: What about the “self-cleavage kobs at 2500 uM GlcN6P” value (glucosamine-6-phosphate [4]) of the same variant?
A: Its value is less than 1e-05 s⁻¹.

Q: How did the “self-cleavage kobs at 40 uM GlcN6P” value (glucosamine-6-phosphate [1]) turn out when C10A G13A U56C was run?
A: The value was less than 1e-05 s⁻¹.

Q: What does the source list for A42C G51U?
A: self-cleavage kobs at 40 uM GlcN6P (glucosamine-6-phosphate [1]): < 1e-05 s⁻¹; self-cleavage kobs at 160 uM GlcN6P (glucosamine-6-phosphate [2]): < 1e-05 s⁻¹; self-cleavage kobs at 640 uM GlcN6P (glucosamine-6-phosphate [3]): < 1e-05 s⁻¹; self-cleavage kobs at 10000 uM GlcN6P (glucosamine-6-phosphate [5]): < 1e-05 s⁻¹

Q: Which “self-cleavage kobs at 40 uM GlcN6P” value (glucosamine-6-phosphate [1]) does the source give for C8G G41A here?
A: The value was less than 1e-05 s⁻¹.

Q: What about the “self-cleavage kobs at 160 uM GlcN6P” value (glucosamine-6-phosphate [2]) of the same variant?
A: Its value is less than 1e-05 s⁻¹.

Q: And the “self-cleavage kobs at 2500 uM GlcN6P” value (glucosamine-6-phosphate [4])?
A: Its value is less than 1e-05 s⁻¹.

Q: What about the “self-cleavage kobs at 10000 uM GlcN6P” value (glucosamine-6-phosphate [5]) of the same variant?
A: Its value is less than 1e-05 s⁻¹.
